Results reported in the supplement of paper PMC12764529.
± gives the half width of the 95% confidence interval.

Experiments:
[1] = folding stability dG unfold from trypsin proteolysis; higher = more stable
Method in brief: (§1)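 Designed mini-proteins (under 80 residues, no cysteine) in a PA-tagged cDNA display construct were digested with trypsin and chymotrypsin. Each protease was used at 11 concentrations (threefold dilutions) plus a no-protease condition, followed by sequencing. K50 was inferred by Bayesian fitting of sequencing counts, and unfolding free energy was derived against a sequence-predicted unfolded-state K50 and a shared folded-state K50, per protease or combined. Only designs with AlphaFold2 dimer inter-PAE above 15 were kept.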

[2] = folding stability dG unfold from chymotrypsin proteolysis; higher = more stable
Method in brief: as §1

[3] = folding stability dG unfold (combined trypsin and chymotrypsin); higher = more stable
Method in brief: as §1

| Sequence | folding stability dG unfold [1] [kJ/mol] | folding stability dG unfold [2] [kJ/mol] | folding stability dG unfold [3] [kJ/mol] |
| --- | --- | --- | --- |
| SMKVEIEEEVEGDRITLTIKFDDEEEAEKAIKELAKELGIPMKVLSRESEKLPGGEYKLTITGEVPPDLKSA [r9_102_JUSTAS] | 0.802 ± 0.347 | 4.59 ± 1 | 2.21 ± 1 |
| SAGGSAGGSAGKIELTNIQVWPGPNGRPWISMTISFPDGPVTIWIPFDNPDNIEIEIKPGSAGGSAGGSAGG [r17_64_TrROS] | 11 ± 0.418 | 12.6 ± 0.18 | 11.8 ± 0.351 |
| SAGGSAKKKIKIKVKNKDGSVYELEFDEENGIVKITYKDGKKEELSVEELKKLPLPKNITEVEIVPSAGGSA [r15_1043_TrROS_Hall] | 6.58 ± 0.18 | 10.8 ± 0.151 | 9.42 ± 0.247 |
| SAGGSAMIEIKVEVNGKTYRITIEKNEDGTLTLTVYDEKTGKKTEIEIPLENLEELKKLNVKRIEISAGGSA [r15_629_TrROS_Hall] | 7.46 ± 0.322 | 14.8 ± 0.151 | 12.9 ± 0.502 |
| SAGGMKTYEYELELEGGGRLRIKITEDPNNPVYTVTFYSPEGKKLKTITIPANSIEEALKEAIELLKSAGGS [r16_158_JUSTAS] | 19.2 ± 1.21 | 20.1 ± 0.502 | 19.8 ± 0.753 |
| SAGTLVLVIEVPLEDVTPEQAEEIAEEAARFLREAGLPEGIEVEDVRVERLPDGRLLVLLPMRILEDESAGG [r19_87_TrMRF] | 8.26 ± 0.234 | 10.9 ± 0.247 | 10.1 ± 0.586 |
| SAGGFKIKNIDVERNPDNGWRTITVEFPGNGWKFQIQVPPDGGVKYEWYNNGEPQTYTIPADDLKDLSAGGS [r8_238_TrROS] | 4.2 ± 0.251 | 5.59 ± 0.343 | 5.04 ± 0.335 |
| SAGGSAGGSTIDITLPDLDEEEIREYLKELFPDVEVTIEYDPSTNTYTLKVGGDEVVVTRLPPNSAGGSAGG [r6_609_JUSTAS] | 13.6 ± 0.36 | 14.4 ± 0.159 | 14.4 ± 0.238 |
| SAGGMKFELVARFDSKEAAEKAVEELVRELFPDFDVEVEVEVIEDPETGTFLAIATITLPLPGPEDLSAGGS [r8_17_TrMRF] | 18 ± 0.879 | 17.5 ± 0.795 | 17.5 ± 0.837 |
| SAGGSAGGSEVKVLVYPPKGPPRLFADDVPIETLVAQFTAEDPPEPLVLVTKEEAEKLGFPLESAGGSAGGS [r12_379_TrMRF] | 1.82 ± 0.197 | 0.629 ± 0.586 | 1.13 ± 0.92 |
| MTPDDMKDPNGMPPEDMWMVEIYVPRRDPEDGGPKWKPVGTIFIPPGMDPEELNEIIEELPGLDLIEIYPMS [r1_132_TrROS] | 4.33 ± 0.372 | 5.95 ± 0.18 | 5.56 ± 0.586 |
| SAPKLEIEEVHVNPNDGMVMITFQIDNLPPGLKITIKPKNGKPRRWTGEPGKPIMFMIPPGVDDIEIEWSAG [r14_671_TrROS] | 6.86 ± 0.201 | 8.61 ± 0.46 | 8.12 ± 0.628 |
| SAGMTITVKPGEKVKVTIKVEVFDENGKLIKKEEKEVEITVKEGDEITIKIKLDKPVKVKIEIKIEKKSAGG [r19_295_TrROS_Hall] | 11.2 ± 0.711 | 8.41 ± 0.628 | 9.57 ± 1.05 |
| SAGGSAGGSAGMRYEIEVEEVPPGLVRIRVRVDGKEYTILISEEEAKRLAEELGVEIEPVSAGGSAGGSAGG [r17_109_TrROS_Hall] | 13.6 ± 0.502 | 9.54 ± 0.293 | 11.6 ± 0.795 |
| SAGGSAGGSMTPANVVRIEPSPDGILRVTLTHPDGTVTTVEVSPDNLDIGAPDNVTDVTLAPVSAGGSAGGS [r20_194_TrMRF] | 3.9 ± 0.109 | 7.2 ± 0.0962 | 6.02 ± 0.117 |
| SAGGSKKTIVIPVPPGMSVEQIAAELKAKLEELFPDLKVEVVEVKPDGYVKIKIDGKLILIKFPKPSAGGSA [r2_102_TrROS_Hall] | 6.7 ± 0.205 | 13.3 ± 0.176 | 11.6 ± 0.264 |
| SAGGMKTLKIKIKVPEDEEKAEELAKKLEELFGLKVEVEKKDGELTITVEVSEEVRELLKELGVEIEPSAGG [r13_156_TrROS_Hall] | 10.8 ± 0.669 | 17.4 ± 0.372 | 15.8 ± 0.669 |
| SAGGSAGGSAGAPPGSTVTVTYTVTTTVTDRVPDGPGFTNPHTLTSTVTTTVNVGHPDLVSAGGSAGGSAGG [r11_734_TrMRF] | 3.48 ± 0.243 | 0.0115 ± 0.711 | 2.45 ± 0.502 |
| SAGGSAGGSAGGEKIIKVHPDNIEAFLKEAKEKGYKVILFPNGEAIVNGKKVKIISDPKSAGGSAGGSAGGS [r10_930_TrMRF] | 5.7 ± 0.502 | 7.23 ± 0.31 | 7.26 ± 0.753 |
| SAGGMKIVSIEYDKENKKITIKVEAPPGVSAEELAKKIKELAKELFGKEIEIEVKVEKVEFFEPEEESAGGS [r8_314_TrROS_Hall] | 15.1 ± 0.669 | 13.1 ± 0.544 | 13.9 ± 0.502 |
| SAGGSKEKFLTIEHPDYVIKAYVDYPKEGKLRVRIEIYDKNGKLLKTIEVEAYSPEEVLEFLEKAASAGGSA [r2_82_TrMRF] | 10.4 ± 0.418 | 13.7 ± 0.544 | 12.7 ± 0.586 |

| Sequence | folding stability dG unfold [1] [kJ/mol] | folding stability dG unfold [2] [kJ/mol] | folding stability dG unfold [3] [kJ/mol] |
| --- | --- | --- | --- |
| SAGGSAGGSAGGSLELTFLLEDGTLAKVRIELNEDGELSISVELFELPAPEPVEVRFYPESAGGSAGGSAGG [r7_79_TrROS_Hall] | 5.95 ± 0.213 | 11.7 ± 0.351 | 10.1 ± 0.753 |
| SAGGSAMTLEDLKDEFVVITLPDGTVVKAKVEEVDTKGPVLTILVGGKPILIPADAPVKIEIEPPKSAGGSA [r15_355_JUSTAS] | 7.27 ± 0.264 | 5.69 ± 0.138 | 6.39 ± 0.18 |
| SAGGSAGGSMTTTVERSPSGKTTVTETETRKDAAGNEYTLVTTTTFDPNTTTSTTTTTVVPVSSAGGSAGGS [r12_57_JUSTAS] | 4.5 ± 0.259 | 6.85 ± 0.201 | 6.34 ± 0.36 |
| SAGGSAGGSAGIGSKKPVIKKNIEIEPEIKVEGGKGGSKVKIEYKAKIEIKVYIISKNNPSAGGSAGGSAGG [r17_186_TrMRF] | 5.37 ± 0.92 | 8.98 ± 0.544 | 8.3 ± 1.67 |
| SAGGSSSLSGLKNVTEEPRLAPDSDEEEVLITYENGYLERREPGVLEFYDPENGKVLSKKNVPYHHSAGGSA [r2_374_JUSTAS] | -3.37 ± 1.46 | -0.32 ± 1.26 | -1.36 ± 1.26 |
| SAGAMPPVVEVAPVEGEGLLRVTVPVPTSDVVRVTVDLGDRRLEYTLPRDASLEVSTADAEVRVAVELVSAG [r14_96_JUSTAS] | 2.09 ± 0.13 | 2.67 ± 0.418 | 2.67 ± 0.234 |
| SEPPPKIKIKEVEYNPDDGYLTIPVTHPNGPKMRVKFRPPDGKTQEIPPNSPTITIPLPPNMRLTEIEVDSA [r9_113_TrROS] | 14.7 ± 1.3 | 11.7 ± 1.21 | 13.5 ± 1.38 |
| SAHRIMIMFDSPEQAEEIIRKIAEEMGWKPKNIDVEVHPFPVTRPTPDGKKEEHPMYWVTIEIKLKPKKSAG [r14_773_TrROS] | 8.13 ± 0.276 | 11.9 ± 0.402 | 9.92 ± 1.13 |
| SAGGSAGGSAGGMALIKLPNGEVQPVKIKAIDPDGNILVEPENSEWQTFSFDGLEIIPLPSAGGSAGGSAGG [r7_823_TrMRF] | 2.71 ± 0.172 | 3.99 ± 0.669 | 3.71 ± 0.669 |
| SAGGATIEIKELGRDEDTWYFLVTDPGSAEAVKDFIEKFIPPDYDAKIKILSVDPETGKVTALIEIPGSAGG [r13_491_TrMRF] | 9.32 ± 0.46 | 11.2 ± 0.586 | 11 ± 0.628 |
| SAGGSAGGSAGGEKTIVISEEEAEKLAKELEKKGLTVERKPDGTLKVNGKEIRIIVVEPSAGGSAGGSAGGS [r10_930_TrROS_Hall] | 3.17 ± 0.322 | 3.59 ± 0.293 | 3.41 ± 0.711 |
| SAGGSAGGSAGSLPIPISSESVSSLPESPLSVVTVKLPDGKTVVITVDLNSSSSSVTPLPSAGGSAGGSAGG [r17_369_JUSTAS] | 6.72 ± 0.213 | 4.69 ± 0.134 | 5.72 ± 0.213 |
| SAGGSAGGEISFDPETGKLTILAPSSISPDAIKKAIEEAGIPFKITSVSYIPDPKTLKVEYEISSAGGSAGG [r6_395_TrMRF] | 3.52 ± 0.105 | 1.04 ± 1.21 | 3.01 ± 0.795 |
| SAGGSAGGSAGSVTVSSTTTTLTDSMRVITETFTSPDLVKVTFVPTSNPEDVTVTTLPSASAGGSAGGSAGG [r11_1046_JUSTAS] | -1.74 ± 0.389 | 4.34 ± 0.109 | 2.69 ± 0.385 |
| SAGGPATLTFEFPAEDGSRVRVEVTVEEVPFVDPRTGEPVAPFLKVHVKVTVFDEDGEAHEAEFELLSAGGS [r8_474_TrMRF] | 9.3 ± 0.18 | 17.6 ± 0.314 | 15.6 ± 0.502 |
| SAGGSAGGSSPITIPIPLSELSEETLKKIAEENPEGETPIKIIKPDGTPVTIVVKPGGEIIGASAGGSAGGS [r12_1054_JUSTAS] | 3.05 ± 0.192 | 4.57 ± 0.285 | 4.21 ± 0.314 |
| SAGGSAAPVSRVVELEFVLPPELVAEAVDALRKLPGVKASFELAEVLPDGYVRVRVTIEVPDDVDLSAGGSA [r15_441_TrMRF] | 14.5 ± 0.46 | 16.5 ± 0.305 | 15.9 ± 0.305 |
| SAGGSAGGSAGPFEGYRDKKGKYYLETPDGTKELDSEEELEEEKKRLLEEGIPINVKPSASAGGSAGGSAGG [r17_35_JUSTAS] | -1.29 ± 0.46 | 2.97 ± 0.586 | 1.92 ± 1.09 |
| SAGGSAGGMVTVPVPKDKPLNPVATVKLPDGSTIPAGPVAVDLEKGTATLEVPEPAEVIVEVNPSAGGSAGG [r6_180_JUSTAS] | 0.227 ± 0.335 | 5.68 ± 0.0962 | 4.24 ± 0.155 |
| SAGGSAGGSPDVVVPATLTFPLDAVAKAEFYPDGTVKVTFPDNTVALAKVEGGVVTDVRLAPASAGGSAGGS [r12_749_TrMRF] | 0.143 ± 0.13 | 0.2 ± 0.276 | 0.459 ± 0.397 |
| SAGGSAGGSAGMPLTVLGTEEIGDSTTVTTKDPTSDELYRKTYTNGAVSSTEIVPASELGSAGGSAGGSAGG [r11_19_JUSTAS] | 0.0894 ± 0.222 | 1.18 ± 0.293 | 0.906 ± 0.301 |
